In PMC3891853 one finds percent of parent (% (BAG-1M = 100%)) and ATPase activity of purified Hsc70 with DJA2 and HspBP1 mut (each 4 µM, 30°C) data, which are given here for two molecules.

In one experiment the target is Hsc70/Hsp70. In words: co-immunoprecipitation with anti-Flag agarose, densitometry of co-precipitated Hsc/Hsp70. The conditions noted are these: HEK293 cells, transient transfection; mean + SEM, N = 3; parent: 100; read off a plot.
The target of experiment [1] is HA-tagged glucocorticoid receptor (GR) (UniProt P04150). In words: co-immunoprecipitation with anti-Flag agarose, Western blot densitometry. The conditions noted are these: HEK293 cells, transient transfection, mean + SEM, N = 3, parent: 100, read off a plot. Background: Immunoblotting shows a protein as a band on a membrane.
Chain of UniProt P04150 (P04150 whole entry): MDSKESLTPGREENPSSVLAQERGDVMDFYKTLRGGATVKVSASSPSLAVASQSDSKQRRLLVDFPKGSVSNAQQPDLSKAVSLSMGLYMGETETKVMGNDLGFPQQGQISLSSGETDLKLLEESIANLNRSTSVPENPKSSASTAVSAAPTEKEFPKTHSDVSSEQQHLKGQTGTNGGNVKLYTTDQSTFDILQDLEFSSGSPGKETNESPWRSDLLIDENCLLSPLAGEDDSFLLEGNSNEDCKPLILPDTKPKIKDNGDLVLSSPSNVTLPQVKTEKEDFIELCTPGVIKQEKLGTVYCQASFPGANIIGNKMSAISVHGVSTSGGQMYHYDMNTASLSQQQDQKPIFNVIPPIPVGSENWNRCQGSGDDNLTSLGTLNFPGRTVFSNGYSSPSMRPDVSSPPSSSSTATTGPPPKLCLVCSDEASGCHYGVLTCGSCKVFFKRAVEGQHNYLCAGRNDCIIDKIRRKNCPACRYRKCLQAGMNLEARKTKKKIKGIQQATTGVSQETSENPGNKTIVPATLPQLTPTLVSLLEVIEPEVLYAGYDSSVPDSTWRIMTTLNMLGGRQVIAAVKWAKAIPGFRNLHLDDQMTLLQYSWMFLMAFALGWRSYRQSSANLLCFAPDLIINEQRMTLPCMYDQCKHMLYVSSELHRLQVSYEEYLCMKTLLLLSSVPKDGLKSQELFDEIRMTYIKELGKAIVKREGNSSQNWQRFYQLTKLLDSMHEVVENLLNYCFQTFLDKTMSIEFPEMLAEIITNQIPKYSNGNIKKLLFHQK
Experiment [2] has as its target Hsc70, in vitro translated and labeled (UniProt P11142).
Chain of UniProt P11142 (P11142 whole entry): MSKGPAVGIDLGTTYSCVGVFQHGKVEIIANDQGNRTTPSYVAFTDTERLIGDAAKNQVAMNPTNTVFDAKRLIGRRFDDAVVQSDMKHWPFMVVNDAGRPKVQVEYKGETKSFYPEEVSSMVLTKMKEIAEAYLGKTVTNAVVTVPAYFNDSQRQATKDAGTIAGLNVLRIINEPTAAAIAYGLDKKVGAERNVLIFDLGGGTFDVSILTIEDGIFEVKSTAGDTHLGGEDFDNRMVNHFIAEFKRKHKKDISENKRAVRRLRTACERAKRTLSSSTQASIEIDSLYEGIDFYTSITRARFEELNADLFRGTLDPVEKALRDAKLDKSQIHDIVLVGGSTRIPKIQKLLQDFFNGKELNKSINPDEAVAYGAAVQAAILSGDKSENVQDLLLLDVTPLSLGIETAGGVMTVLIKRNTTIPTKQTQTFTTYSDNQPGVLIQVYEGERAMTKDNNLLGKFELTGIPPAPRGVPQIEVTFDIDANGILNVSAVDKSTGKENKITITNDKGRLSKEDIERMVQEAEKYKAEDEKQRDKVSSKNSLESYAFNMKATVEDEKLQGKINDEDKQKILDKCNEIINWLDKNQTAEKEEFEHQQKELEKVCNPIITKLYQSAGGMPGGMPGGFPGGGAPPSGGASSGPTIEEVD

On to “Flag-tagged wild-type Bcl2-associated athanogene 1, medium isoform (BAG-1M) R237A”, for which the percent of parent (% (BAG-1M = 100%)) with Hsc70/Hsp70 was determined as 6; in experiment [1] it was 18.

B1: purified HspBP1_mut (A137R, K249A; His-tagged) (natural protein)
chain: MSDEGSRGSRLPLALPPASQGCSSGGGGGGSSAGGSGNSRPPRNLQGLLQMAITAGSEEPDPPPEPMSEERRQWLQEAMSAAFRGQREEVEQMKSCLRVLSQPMPPTAGEAEQAADQQEREGALELLADLCENMDNRADFCQLSGMHLLVGRYLEAGAAGLRWRAAQLIGTCSQNVAAIQEQVLGLGALRKLLRLLDRDACDTVRVKALFAISCLVREQEAGLLQFLRLDGFSVLMRAMQQQVQKLKVASAFLLQNLLVGHPEHKGTLCSMGMVQQLVALVRTEHSPFHEHVLGALCSLVTDFPQGVRECREPELGLEELLRHRCQLLQQHEEYQEELEFCEKLLQTCFSSPADDSMDR
Regarding B1, the ATPase activity of purified Hsc70 with DJA2 and HspBP1 mut (each 4 µM, 30°C) in experiment [2] amounted to 7.26 min⁻¹.
